According to the supplement of paper PMC10724198:
± gives the standard deviation of the averaged measurements.
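Note: PSI is a weighted mean of sequencing reads over stability bins, variants kept only with over 10 reads, mCherry proximal and sfGFP distal, peptide attached via GGGS linker.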

The sequences below were run on Saccharomyces cerevisiae (assay: protein stability index of tFT-peptide fusion (C-terminal peptide) (PSI (0-1 scale)); higher = more stable (slower turnover)). Conditions: genetic background: wild type; temperature: 30 C.
PPPQFPRPRPTS was tested, and the protein stability index was 0.724 ± 0.014. With PPPRFRPLPLRA the protein stability index was 0.5935 ± 0.0019. PPPRPPPRPLPP gave a protein stability index of 0.669 ± 0.024. With PPPRPPSPPPPP the protein stability index was 0.672 ± 0.051. PPPRPPSPPPPS was tested, and the protein stability index was 0.699 ± 0.035. For PPPRPRPSSRSI, the protein stability index was 0.71 ± 0.016. Work on PPPRTTPYPSSL yielded a protein stability index of 0.714 ± 0.055. PPPRVHPCHPPC showed a protein stability index of 0.678 ± 0.031. PPPSPGSSAPPP gave a protein stability index of 0.676 ± 0.037. PPPSPLANPPSP showed a protein stability index of 0.728 ± 0.092. In the case of PPPSPPPQPHRP, the protein stability index is reported as 0.665 ± 0.018. PPPSQPTSPPPP showed a protein stability index of 0.732 ± 0.067. For PPPSRLSPVICP, the protein stability index was 0.612 ± 0.01. PPPSRSLPPRPQ showed a protein stability index of 0.727 ± 0.027. PPPSRSLPPRRL showed a protein stability index of 0.661 ± 0.03. Work on PPPSSIGRTPIS yielded a protein stability index of 0.693 ± 0.033. PPPSSPPPPAPL showed a protein stability index of 0.694 ± 0.035. PPPTHQLAVLSP gave a protein stability index of 0.6413 ± 0.0062. PPPTPPPAPSHR gave a protein stability index of 0.677 ± 0.1. Work on PPPTSPPHPPSP yielded a protein stability index of 0.701 ± 0.083. For PPPVFPPLPVLS, the protein stability index was 0.598 ± 0.007. Work on PPQFIYYPLPLF yielded a protein stability index of 0.616 ± 0.063. Sequence PPQGMTGGRGDR has a protein stability index of 0.697 ± 0.077. Work on PPQTHPLPCPSP yielded a protein stability index of 0.745 ± 0.018. PPRAPFVSPFGY was tested, and the protein stability index was 0.723 ± 0.012. With PPRAPSPSPLPP the protein stability index was 0.893 ± 0.1. PPRCPLPPLSPP was tested, and the protein stability index was 0.701 ± 0.11. For PPRFFARPPFRT, the protein stability index was 0.6309 ± 0.0059. Sequence PPRGAPWTRPPQ has a protein stability index of 0.691 ± 0.015. Sequence PPRGFDPSFQTV has a protein stability index of 0.7 ± 0.18. For PPRHPPPSPLVA, the protein stability index was 0.668 ± 0.011. Sequence PPRHTPFSLPPF has a protein stability index of 0.651 ± 0.074. For PPRLNKAPCLDP, the protein stability index was 0.705 ± 0.036. Sequence PPRPFTLLPPPP has a protein stability index of 0.6424 ± 0.0062. In the case of PPRPPAPHLSGI, the protein stability index is reported as 0.681 ± 0.039. For PPRPPPAPPPLP, the protein stability index was 0.642 ± 0.0021. PPRPPPFPPLLP was tested, and the protein stability index was 0.679 ± 0.058. PPRPPPHPPLPP gave a protein stability index of 0.678 ± 0.0057. PPRPPPLPPSRP gave a protein stability index of 0.627 ± 0.032. With PPRPPPSPPSFP the protein stability index was 0.688 ± 0.014. With PPRPPRFFLLPP the protein stability index was 0.6586 ± 0.0061. PPRPQPPGSSFS gave a protein stability index of 0.741 ± 0.012. With PPRPRPRPLSPP the protein stability index was 0.65 ± 0.039. In the case of PPRPSLIPPLPS, the protein stability index is reported as 0.61 ± 0.016. In the case of PPRPSTPPRHSL, the protein stability index is reported as 0.695 ± 0.058. With PPRQPACAFLPS the protein stability index was 0.653 ± 0.09. For PPRSPPPLSPTP, the protein stability index was 0.583 ± 0.038. PPRSPPPPPTLP was tested, and the protein stability index was 0.6578 ± 0.001. Sequence PPSAALPTSPTG has a protein stability index of 0.6911 ± 0.0015. For PPSFCFFLLPFL, the protein stability index was 0.6558 ± 0.0054. For PPSHSPRPLSFL, the protein stability index was 0.653 ± 0.08. With PPSHYPFTPADP the protein stability index was 0.728 ± 0.046. PPSIFELFPSPP was tested, and the protein stability index was 0.7122 ± 0.0051. For PPSLHSRAFTLS, the protein stability index was 0.557 ± 0.2. Work on PPSLPAPPPPPA yielded a protein stability index of 0.6655 ± 0.0023. PPSLSGECSPSF showed a protein stability index of 0.6781 ± 0.0039. PPSLTPPFSPLL showed a protein stability index of 0.703 ± 0.027. Work on PPSLTSPRHPPT yielded a protein stability index of 0.669 ± 0.022. PPSNASFSSPPH was tested, and the protein stability index was 0.824 ± 0.035. PPSPAGPLPSPA gave a protein stability index of 0.686 ± 0.021. PPSPHLPPPPAL showed a protein stability index of 0.715 ± 0.016. Work on PPSPPAPPAPPH yielded a protein stability index of 0.692 ± 0.038. With PPSPPLPPLPPP the protein stability index was 0.653 ± 0.0084. PPSPPLRPPSLC was tested, and the protein stability index was 0.704 ± 0.024. PPSPPPPPPLHS showed a protein stability index of 0.676 ± 0.042. PPSPPPTPFPPS was tested, and the protein stability index was 0.651 ± 0.1. PPSPPPTTPSPP was tested, and the protein stability index was 0.656 ± 0.035. Sequence PPSPPSSHPLLP has a protein stability index of 0.679 ± 0.0078. PPSPSPPAPQAS gave a protein stability index of 0.632 ± 0.05. For PPSRPPPPPPSP, the protein stability index was 0.702 ± 0.061. For PPSSLPRLQCSP, the protein stability index was 0.674 ± 0.054. With PPSSPHAPTALP the protein stability index was 0.685 ± 0.032. With PPSSPTRPSSPL the protein stability index was 0.736 ± 0.051. Sequence PPTANPMLPPPF has a protein stability index of 0.651 ± 0.055. Sequence PPTASPPPLSPL has a protein stability index of 0.691 ± 0.083. With PPTFLLRSAPSL the protein stability index was 0.669 ± 0.043. Sequence PPTFRLHCPPAT has a protein stability index of 0.72 ± 0.02. PPTLRRGSTFYH was tested, and the protein stability index was 0.6788 ± 0.0016. Work on PPTNTPTPPSYV yielded a protein stability index of 0.691 ± 0.025. PPTPAAPGLPPA was tested, and the protein stability index was 0.677 ± 0.035. PPTPPAFPPLLA gave a protein stability index of 0.662 ± 0.03. In the case of PPTPQRRRSPPP, the protein stability index is reported as 0.7326 ± 0.0066. In the case of PPTPSLPRPPMQ, the protein stability index is reported as 0.676 ± 0.014. For PPTPSSPRPMAP, the protein stability index was 0.818 ± 0.14. In the case of PPTPVSRSPPPA, the protein stability index is reported as 0.665 ± 0.021. For PPTRPPPALIPP, the protein stability index was 0.711 ± 0.022. Work on PPTRSLYLLPLI yielded a protein stability index of 0.6983 ± 0.0035. With PPVLPVGLPPTP the protein stability index was 0.684 ± 0.035. For PPVLTLFMPSYS, the protein stability index was 0.7051 ± 0.0043. PPVPPLRPSCPS gave a protein stability index of 0.684 ± 0.01. Work on PPVSLGCPPGRP yielded a protein stability index of 0.776 ± 0.099. PPVSPFPVLQGR showed a protein stability index of 0.652 ± 0.048. For PPWPPQVALPPT, the protein stability index was 0.762 ± 0.068. With PPYPLLLRLPPP the protein stability index was 0.618 ± 0.066. In the case of PQCSLPLPFTLL, the protein stability index is reported as 0.61363 ± 0.00047. With PQHLPFPSPAPP the protein stability index was 0.711 ± 0.011. With PQILTSRVAIKL the protein stability index was 0.646 ± 0.068. With PQLFLENHEFCI the protein stability index was 0.925 ± 0.051. Work on PQLPSRVYPSLP yielded a protein stability index of 0.695 ± 0.027. PQRPRTLPPLTP gave a protein stability index of 0.7236 ± 0.0015. With PQTPANDDGDPN the protein stability index was 0.642 ± 0.041. Work on PQVNSNQIRAPD yielded a protein stability index of 0.677 ± 0.021. PQYLSGFDIHNG gave a protein stability index of 0.728 ± 0.052. Work on PRAPHHRIPEDL yielded a protein stability index of 0.733 ± 0.097. Work on PRDRLIRNHVTR yielded a protein stability index of 0.716 ± 0.086. In the case of PRERADPSLPVK, the protein stability index is reported as 0.663 ± 0.035. PRFKPSRSTPAD gave a protein stability index of 0.675 ± 0.031. PRGLFLTRLRPC showed a protein stability index of 0.64 ± 0.058. Sequence PRIPPLRPPPPA has a protein stability index of 0.6649 ± 0.0047. PRKVNAHKDTCH was tested, and the protein stability index was 0.693 ± 0.022. Work on PRLARSASLDSP yielded a protein stability index of 0.731 ± 0.08. For PRLLPPDPRHAP, the protein stability index was 0.7002 ± 0.0032. For PRLPPTDHAGAL, the protein stability index was 0.675 ± 0.04. PRLRPFATPNCF was tested, and the protein stability index was 0.636 ± 0.046. PRPDPAPPAALP was tested, and the protein stability index was 0.6017 ± 0.0057. In the case of PRPGGQGHPNAG, the protein stability index is reported as 0.742 ± 0.027. Work on PRPKPSAIPILT yielded a protein stability index of 0.597 ± 0.015. With PRPLLPPPPLLA the protein stability index was 0.629 ± 0.083. For PRPLPSPPHPRP, the protein stability index was 0.71 ± 0.026. PRPLPTGRFPPP gave a protein stability index of 0.669 ± 0.028. For PRPPLPSTPEAA, the protein stability index was 0.612 ± 0.024. Work on PRPPLRATASVV yielded a protein stability index of 0.699 ± 0.033. PRPPPSRSFPPP was tested, and the protein stability index was 0.784 ± 0.13. Work on PRPPTSPPSLHP yielded a protein stability index of 0.7 ± 0.025. With PRQACPLPLPHV the protein stability index was 0.655 ± 0.029. Sequence PRQGTRKYDKMN has a protein stability index of 0.724 ± 0.059. PRRAARLLPRPL gave a protein stability index of 0.693 ± 0.015. PRRARPLALVFH was tested, and the protein stability index was 0.6 ± 0.033. PRRSSSPPLLSP was tested, and the protein stability index was 0.784 ± 0.0088. Work on PRSAPPVPPIYP yielded a protein stability index of 0.6502 ± 0.0053. In the case of PRSAPSPRRSPA, the protein stability index is reported as 0.757 ± 0.034. For PRSFPPRPPPPV, the protein stability index was 0.726 ± 0.051. For PRSLPAGHPSRG, the protein stability index was 0.692 ± 0.028. For PRSMLIFPSFPF, the protein stability index was 0.825 ± 0.042. For PRSPPPPPPLPP, the protein stability index was 0.626 ± 0.019. Work on PRSPPTPPPAPP yielded a protein stability index of 0.66 ± 0.013. For PRSYPPSPPPPS, the protein stability index was 0.704 ± 0.042. Sequence PRTHPPPPAPCR has a protein stability index of 0.6634 ± 0.0054. PRTPRPPSPPAS was tested, and the protein stability index was 0.739 ± 0.015. PRTRSYTRCGVT was tested, and the protein stability index was 0.614 ± 0.024. PRYCQIKIISHK showed a protein stability index of 0.554 ± 0.14. PRYPLLPAHTLI showed a protein stability index of 0.705 ± 0.029. With PSAFPAPPLRCS the protein stability index was 0.686 ± 0.027. With PSAPPPPPPSPP the protein stability index was 0.5979 ± 0.005. PSCLGSIRSTPL gave a protein stability index of 0.657 ± 0.02. In the case of PSDPTPSVPPIV, the protein stability index is reported as 0.6647 ± 0.001. With PSFPPLLSSSSI the protein stability index was 0.763 ± 0.11. For PSFVPHLPRPPP, the protein stability index was 0.722 ± 0.071. With PSHFSPPSAPPP the protein stability index was 0.738 ± 0.055. Work on PSIHCLSATQTW yielded a protein stability index of 0.672 ± 0.068. For PSIPPPSPSPPA, the protein stability index was 0.717 ± 0.027. For PSLHSPPPPPPR, the protein stability index was 0.703 ± 0.053. Sequence PSLLSFPFVSLP has a protein stability index of 0.696 ± 0.05. For PSLPPLPRSPPP, the protein stability index was 0.714 ± 0.04. PSLPPPPHSAFC showed a protein stability index of 0.698 ± 0.073. In the case of PSLPPPPPPPSP, the protein stability index is reported as 0.614 ± 0.082. PSLPPPPPTPPT gave a protein stability index of 0.688 ± 0.047. PSLPVPPTLCPI showed a protein stability index of 0.675 ± 0.062. PSLSPPVHALLF was tested, and the protein stability index was 0.722 ± 0.013. In the case of PSLSVPERSPSL, the protein stability index is reported as 0.7 ± 0.041.
